# Assay results from publication PMC9482650, “Quantitative fragmentomics allow affinity mapping of interactomes” (Nature Communications, 2022).
# Experiments:
# Experiment in all cases: holdup assay
# Set-up in all cases: key: below the threshold = too weak to quantify, mostly under pKd 3.1 to 4
# Conditions in all cases: plain residues with an end cap or a label only (N-terminal biotin on a linker: ttds)
# MPP5, Q8N3R9 = target: T1, MPP5, Q8N3R9
# T1 sequence (Q8N3R9 251-346, limits assumed, looked up): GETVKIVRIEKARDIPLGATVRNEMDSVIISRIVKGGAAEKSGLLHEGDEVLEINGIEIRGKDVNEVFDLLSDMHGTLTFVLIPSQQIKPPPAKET
# SHROOM3, Q8TF72 = target: T2, SHROOM3, Q8TF72
# T2 sequence (Q8TF72 20-120, limits assumed, looked up): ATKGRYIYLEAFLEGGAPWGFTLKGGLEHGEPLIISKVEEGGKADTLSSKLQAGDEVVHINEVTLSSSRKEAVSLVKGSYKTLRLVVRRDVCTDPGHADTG
# LNX2_4, Q8N448 = target: T3, LNX2_4, Q8N448
# T3 sequence (Q8N448 595-690, limits assumed, looked up): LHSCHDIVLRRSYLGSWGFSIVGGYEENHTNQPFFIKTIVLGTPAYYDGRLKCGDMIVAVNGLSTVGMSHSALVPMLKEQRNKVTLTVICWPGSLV
# Inadl_7, Q8NI35 = target: Inadl_7, Q8NI35
# Chain of Inadl_7, Q8NI35 (Q8NI35 1219-1332): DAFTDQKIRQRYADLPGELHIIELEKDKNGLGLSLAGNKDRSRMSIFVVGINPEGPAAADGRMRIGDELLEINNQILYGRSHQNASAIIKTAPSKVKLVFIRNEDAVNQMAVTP
# MAGI1_6, Q96QZ7 = target: MAGI1_6, Q96QZ7
# Chain of MAGI1_6, Q96QZ7 (Q96QZ7 1146-1238): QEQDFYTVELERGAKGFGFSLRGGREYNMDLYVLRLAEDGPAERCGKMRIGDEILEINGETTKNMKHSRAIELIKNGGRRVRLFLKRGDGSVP
# LDB3, O75112 = target: LDB3, O75112
# Chain of LDB3, O75112 (O75112 1-94): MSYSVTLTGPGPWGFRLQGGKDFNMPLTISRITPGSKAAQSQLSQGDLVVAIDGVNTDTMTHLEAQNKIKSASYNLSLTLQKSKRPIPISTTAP
# PTPN13_4, Q12923 = target: T4, PTPN13_4, Q12923
# T4 sequence (Q12923 1783-1878, limits assumed, looked up): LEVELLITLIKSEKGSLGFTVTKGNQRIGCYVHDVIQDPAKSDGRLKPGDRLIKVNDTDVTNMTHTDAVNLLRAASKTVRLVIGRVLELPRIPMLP
# DLG2_1, Q15700 = target: DLG2_1, Q15700
# PREX1_1, Q8TCU6 = target: PREX1_1, Q8TCU6
# Chain of PREX1_1, Q8TCU6 (Q8TCU6 608-718): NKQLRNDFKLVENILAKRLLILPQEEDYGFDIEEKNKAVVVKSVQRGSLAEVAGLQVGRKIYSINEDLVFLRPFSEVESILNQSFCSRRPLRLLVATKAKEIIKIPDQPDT
# LIMK2, P53671 = target: LIMK2, P53671
# Chain of LIMK2, P53671 (P53671 143-248): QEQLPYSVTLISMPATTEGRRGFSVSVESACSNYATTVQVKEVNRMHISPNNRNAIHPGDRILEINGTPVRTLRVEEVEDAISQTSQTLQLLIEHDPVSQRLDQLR
# SHANK2, Q9UPX8 = target: T5, SHANK2, Q9UPX8
# T5 sequence (Q9UPX8 621-730, limits assumed, looked up): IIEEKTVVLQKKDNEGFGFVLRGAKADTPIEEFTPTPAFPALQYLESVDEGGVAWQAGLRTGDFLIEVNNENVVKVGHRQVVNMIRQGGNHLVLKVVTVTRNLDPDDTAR
# MAST3, O60307 = target: MAST3, O60307
# Chain of MAST3, O60307 (O60307 945-1048): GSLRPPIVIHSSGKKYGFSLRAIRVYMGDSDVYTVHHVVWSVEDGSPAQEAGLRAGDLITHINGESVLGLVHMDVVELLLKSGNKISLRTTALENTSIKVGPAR
# PDLIM3, Q53GG5 = target: T6, PDLIM3, Q53GG5
# T6 sequence (Q53GG5 1-94, limits assumed, looked up): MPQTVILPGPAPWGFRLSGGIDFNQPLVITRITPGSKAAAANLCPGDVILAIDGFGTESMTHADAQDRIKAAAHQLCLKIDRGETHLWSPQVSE
# PARD6G, Q9BYG4 = target: T7, PARD6G, Q9BYG4
# T7 sequence (Q9BYG4 153-261, limits assumed, looked up): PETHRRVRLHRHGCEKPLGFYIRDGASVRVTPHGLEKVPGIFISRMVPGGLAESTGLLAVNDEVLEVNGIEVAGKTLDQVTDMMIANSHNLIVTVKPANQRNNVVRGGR
# NOS1, P29475 = target: NOS1, P29475
# Chain of NOS1, P29475 (P29475 9-101): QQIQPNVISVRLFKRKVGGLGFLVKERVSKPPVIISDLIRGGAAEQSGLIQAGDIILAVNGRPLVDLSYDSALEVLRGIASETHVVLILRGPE
# PARD3B_2, Q8TEW8 = target: PARD3B_2, Q8TEW8
# Chain of PARD3B_2, Q8TEW8 (Q8TEW8 376-471): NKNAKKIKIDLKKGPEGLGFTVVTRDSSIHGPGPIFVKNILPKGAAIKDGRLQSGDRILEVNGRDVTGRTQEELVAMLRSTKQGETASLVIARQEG
# SYNPO2L, Q9H987 = target: T8, SYNPO2L, Q9H987
# T8 sequence (Q9H987 1-98, limits assumed, looked up): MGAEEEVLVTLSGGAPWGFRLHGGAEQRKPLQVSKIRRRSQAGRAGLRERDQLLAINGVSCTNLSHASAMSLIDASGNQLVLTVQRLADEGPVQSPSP
# SDCBP_1, O00560 = target: SDCBP_1, O00560
# Chain of SDCBP_1, O00560 (O00560 111-198): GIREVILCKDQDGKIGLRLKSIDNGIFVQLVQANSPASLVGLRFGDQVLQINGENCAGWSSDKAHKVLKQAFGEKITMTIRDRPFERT
# PDZD7_2, Q9H5P4 = target: T9, PDZD7_2, Q9H5P4
# T9 sequence (Q9H5P4 205-303, limits assumed, looked up): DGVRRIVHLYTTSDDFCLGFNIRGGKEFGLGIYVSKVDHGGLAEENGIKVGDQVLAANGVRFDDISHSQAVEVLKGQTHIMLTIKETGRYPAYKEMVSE
# MAGI3_6, Q5TCQ9 = target: MAGI3_6, Q5TCQ9
# Chain of MAGI3_6, Q5TCQ9 (Q5TCQ9 1014-1103): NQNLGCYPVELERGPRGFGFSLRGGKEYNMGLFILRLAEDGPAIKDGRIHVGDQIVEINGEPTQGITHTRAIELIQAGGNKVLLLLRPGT
# NHERF2_1, Q15599 = target: NHERF2_1, Q15599
# Chain of NHERF2_1, Q15599 (Q15599 9-91): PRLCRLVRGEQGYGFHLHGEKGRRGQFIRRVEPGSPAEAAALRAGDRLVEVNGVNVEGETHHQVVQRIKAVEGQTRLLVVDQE
# PDZD2_6, O15018 = target: T10, PDZD2_6, O15018
# T10 sequence (O15018 2745-2839, limits assumed, looked up): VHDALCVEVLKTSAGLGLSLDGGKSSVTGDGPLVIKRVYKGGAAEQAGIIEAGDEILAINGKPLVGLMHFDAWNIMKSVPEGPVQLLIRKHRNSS
# LMO7, Q8WWI1 = target: LMO7, Q8WWI1
# Chain of LMO7, Q8WWI1 (Q8WWI1 1037-1138): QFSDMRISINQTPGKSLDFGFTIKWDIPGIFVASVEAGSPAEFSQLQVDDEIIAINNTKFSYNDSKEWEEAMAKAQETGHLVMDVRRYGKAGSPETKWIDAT
# PTPN4, P29074 = target: T11, PTPN4, P29074
# T11 sequence (P29074 512-599, limits assumed, looked up): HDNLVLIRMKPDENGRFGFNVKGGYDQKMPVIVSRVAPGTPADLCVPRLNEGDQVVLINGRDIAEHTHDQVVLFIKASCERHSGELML
# NHERF1_2, O14745 = target: T12, NHERF1_2, O14745
# T12 sequence (O14745 149-244, limits assumed, looked up): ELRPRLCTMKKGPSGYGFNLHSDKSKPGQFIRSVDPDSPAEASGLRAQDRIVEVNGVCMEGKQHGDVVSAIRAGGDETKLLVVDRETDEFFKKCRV
Binder,"pKd (MPP5, Q8N3R9)","pKd (SHROOM3, Q8TF72)","pKd (LNX2_4, Q8N448)","pKd (Inadl_7, Q8NI35)","pKd (MAGI1_6, Q96QZ7)","pKd (LDB3, O75112)","pKd (PTPN13_4, Q12923)","pKd (DLG2_1, Q15700)","pKd (PREX1_1, Q8TCU6)","pKd (LIMK2, P53671)","pKd (SHANK2, Q9UPX8)","pKd (MAST3, O60307)","pKd (PDLIM3, Q53GG5)","pKd (PARD6G, Q9BYG4)","pKd (NOS1, P29475)","pKd (PARD3B_2, Q8TEW8)","pKd (SYNPO2L, Q9H987)","pKd (SDCBP_1, O00560)","pKd (PDZD7_2, Q9H5P4)","pKd (MAGI3_6, Q5TCQ9)",also measured
"SHSSKGETAV [FZD7, O75084]",below the threshold,below the threshold,below the threshold,4.99,4.7,below the threshold,below the threshold,4.38,below the threshold,below the threshold,below the threshold,below the threshold,below the threshold,below the threshold,4.41,4.42,below the threshold,below the threshold,below the threshold,4.71,"pKd (NHERF2_1, Q15599): below the threshold; pKd (PDZD2_6, O15018): below the threshold; pKd (LMO7, Q8WWI1): below the threshold; pKd (PTPN4, P29074): below the threshold; pKd (NHERF1_2, O14745): below the threshold"
"KLVIKTETTV [RASSF6, Q6ZTQ3]",below the threshold,below the threshold,below the threshold,4.51,below the threshold,below the threshold,below the threshold,4.95,4.1,below the threshold,below the threshold,below the threshold,below the threshold,below the threshold,3.58,below the threshold,below the threshold,below the threshold,below the threshold,4.15,"pKd (NHERF2_1, Q15599): below the threshold; pKd (PDZD2_6, O15018): below the threshold; pKd (LMO7, Q8WWI1): below the threshold; pKd (PTPN4, P29074): 4.33; pKd (NHERF1_2, O14745): below the threshold"
"PSRDRKETSI [RALBP1, Q15311]",below the threshold,below the threshold,below the threshold,4.36,below the threshold,below the threshold,below the threshold,4.34,below the threshold,below the threshold,below the threshold,below the threshold,below the threshold,below the threshold,3.52,3.74,below the threshold,below the threshold,below the threshold,below the threshold,"pKd (NHERF2_1, Q15599): below the threshold; pKd (PDZD2_6, O15018): below the threshold; pKd (LMO7, Q8WWI1): below the threshold; pKd (PTPN4, P29074): 3.83; pKd (NHERF1_2, O14745): below the threshold"
